These results are taken from patent US20230331827A1, “POTASSIUM CHANNEL INHIBITORS” (priority 2017, published 2023).

Test [1] concerns trypsin. In words: Phage TRF binding assay on immobilised biotinylated trypsin (monoclonal phage ELISA). Here is the method: Phage display technology facilitates isolation of binders to any given target from large combinatorial repertoires based on proteins and peptides that can be presented on the surface of filamentous phage^105. In order to isolate functional knottin-antibody fusions from the KnotBody libraries multiple rounds of phage display selections on trypsin (cognate antigen for the EETI-II donor) were carried out. Phage particles were prepared by rescuing KnotBody libraries using trypsin cleavable helper phage ^102,106Two rounds of phage display selections were performed on 10 µg/ml biotinylated trypsin immobilised on Streptavidin (for Round-1) or Neutravidin (for round-2) coated Maxisorp™ immunotubes (Thermo Scientific, Cat No. 444202). In both rounds of selection, phage libraries were pre-incubated with streptavidin coated paramagnetic beads (Thermo Fisher Scientific, Cat. No. 11205D). These beads were removed prior to the addition the phage to the antigen tubes to limit the streptavidin binders entering the selection. Polyclonal phage preparations from round-2 selection outputs were analysed for trypsin binding using a time resolved fluorescence (TRF) binding assay. In this assay, polyclonal phage binding to biotinylated trypsin immobilised on neutravidin (Thermo Fisher Scientific, Cat. No 31000) coated Maxisorp™ plates (Thermo Scientific, Cat. No. 437111) was detected using a mouse anti-M13 antibody (GE Healthcare, Cat. No. 27-9420-01) followed by europium conjugated anti-mouse antibody (Perkin Elmer, Cat. No. AD0124).
In order to identify monoclonal KnotBodies with desired binding characteristics, 94 individual clones derived from 2 rounds of selection using EETI-II CDR1 or CDR2 libraries were picked into 96 well culture plates and phage were prepared from each clone. Methods for screening by monoclonal phage ELISA are known in the art^107. […] Clones with >3x binding signal above background were picked as positive clones and sequenced to identify unique clones. 14 and 42 unique binders were identified from EETI-II CDR1 and EETI-II CDR2 libraries respectively (Table 1). 18 binders from the EETI-II CDR2 library and 3 binders from the EETI-II-CDR1 library were chosen for further characterisation based on their VL and linker sequence diversity. These binders were assigned new clone identification numbers (Table 2).
The trypsin binding capability of EETI-II is attributed to proline (Pro3) and arginine (Arg4) residues present in its loop1 (GCPRILMRC; SEQ ID NO: 68). […] Monoclonal phage was prepared from the 21 selected clones and their mutant equivalents. […] Replacement of the trypsin-binding residues of EETI-II abolished the ability of all KnotBody clones to bind to trypsin (Table 3). In order to confirm that the loss of trypsin binding was not due to reduced expression or display of pIII fusion phage was prepared from 11 (randomly chosen) KnotBodies and their GlyAla variants were analysed on a western blot using an antibody which recognises the product of gene 3 (pIII) using an anti-pIII antibody (MoBiTec GmbH) (FIG. 6).
Bovine antibodies have been described with natural ultra-long VH CDR3s containing a solvent exposed double stranded antiparallel sheet approximately 20 A° in length (referred to as the stalk) presenting a folded domain stabilised by 3 disulfide bonds (referred to as the Knob)^10. Zhang and colleagues have shown that the Knob domains of these cow ultra-long VH CDR3 antibodies (ULVC-Ab) can be replaced with other folded proteins such as erythropoietin^13. In this example, we assess the ability of a cow ULVC-Ab to present functional knottin fusions on phage in comparison with a KnotBody. In order to create a Knottin-cow UCLA fusion, the sequence between the first and the last cysteines of the knob region of the Cow ULVC-Ab BLV1H12 was replaced with the sequence of the trypsin binding knottin; EETI-II (EETI-II cow ULVC-Ab). A gene fragment encoding this construct was synthesised (Integrated DNA technologies, Table 21). […]

In test [2] the test system is trypsin. The experiment in a line: KnotBody Fab TRF binding assay on biotinylated trypsin. As to the method: In order to confirm the trypsin binding ability of KnotBodies in Fab format, purified proteins were tested for binding to trypsin using a TRF binding assay. In this assay binding of KnotBody Fabs ([…]) to biotinylated trypsin (immobilised on streptavidin coated Maxisorp™ plates) was detected using a mouse anti-CH1 antibody followed by a europium conjugated anti-mouse antibody (Table 4). 7 KnotBodies (KB_A04, KB_A01, KB_A05, KB_A07, KB_A08, KB_A10, KB_A12) were chosen for crystallisation. DNA prepared for these clones were transfected into 500 ml HEK-293F cells as described before. Expressed proteins were purified using CaptureSelect IgG-CH1 affinity matrix. Purified proteins were initially subjected to crystallisation trials using commercially available crystallisation screens (Supplier). Well-defined crystals were readily obtained for KB_A12 and KB_A05. Crystallisation conditions for these two clones were further optimised and the following condition was used to generate diffraction quality crystals: 0.1 M MES pH=6.5, 25 %w/v PEG MME 2000 and 0.1 M Tris.Cl, 50% PEG MME, 10 mM NiCl2. Complete diffraction data was collected on these crystals at 100 K under liquid nitrogen stream. Collected data was processed using PROTEUM2 software (Bruker). The crystal structure of the knottin-fused Fab antibodies was resolved using molecular replacement technique^109 using Phenix software v 1.8.1-1168^110. Resulting structure was further refined using Phenix.Refine^111. The templates for molecular replacement were downloaded from PDB website (www.rcsb.org/pdb, PDB codes: 3G04 for light chain and 3QOS for heavy chain). KnotBody KB_A12 and KB_A05 sequences are given below. An additional AlaSer sequence is introduced at the N terminus of the light chain from the Nhe1 site used in cloning.
In order to compare the performance of the KnotBodies with short and long linkers, purified Fabs were tested for binding to trypsin by ELISA. In this assay binding of KnotBody Fabs (at 0.5 µg/ml) to biotinylated trypsin (5 µg/ml immobilised on streptavidin coated Maxisorp™ plates) was detected using a mouse anti-CH1 antibody (Hybridoma Reagent Laboratories) followed by a europium conjugated anti-mouse antibody (Perkin Elmer, Cat. No. AD0124). The trypsin binding capability of KB_A07 and KB_A12 KnotBodies were greatly diminished when the short selected linkers were replaced with long and flexible linkers (FIG. 22).

B1: KB_A05: EETI-II knottin fused into VL CDR2, D1A12 VH; trypsin binder (antibody)
heavy: EVQLVESGGGLVRPGGSLRLSCAASGFTFSSYAMSWVRQAPGKGLEWVSAISGSGGSTYYADSVKGRFTISRDNTKNSLYLQMTSLRADDTAFYYCVDFGPGYGTGWFDYWGPGTLVTVSSASTKGPSVFPLAPSSKSTSGGTAALGCLVKDYFPEPVTVSWNSGALTSGVHTFPAVLQSSGLYSLSSVVTVPSSSLGTQTYICNVNHKPSNTKVDKKVEPKSC
light: QSVLTQPPSVSEAPRQRVTITCSGSSSNIGNNAVNWYQQLPGKAPKLLIYAADKCPRILMRCKQDSDCLAGCVCGPNGFCGGGSGIPERFSGSKSGTSASLAISGLRSEDEADYYCATWDDNLNGVVFGGGTKLTVLGQPAAAPSVTLFPPSSEELQANKATLVCLISDFYPGAVTVAWKADSSPVKAGVETTTPSKQSNNKYAASSYLSLTPEQWKSHKSYSCQVTHEGSTVEKTVAPTECS
modifications: KB_A05 Heavy chain; KB_A05 Light chain
On to B1, for which the “% reduction in binding signal” value in test [1] (GlyAla mutant (Pro3, Arg4 of EETI-II substituted) versus the clone, monoclonal phage) is listed as 100%. Moreover, the “Tryspin binding signal (FU)” value in test [1] (monoclonal phage supernatant, biotinylated trypsin on neutravidin plates) stood at 121458 FU. The “TRF signal for 0.6 ug/mL Fab” value in test [2] (Fab 0.6 ug/mL) is 46706. The “TRF signal for 2.4 ug/mL Fab” value in test [2] (Fab 2.4 ug/mL) was determined as 65386. In addition, the “TRF signal for 10 ug/mL Fab” value in test [2] (Fab 10 ug/mL) is on record as 217918.
